The source of these data is patent US20240279318A1 (NANJING LEGEND BIOTECH, published 2024).

Test [1] concerns the target T1, AFP158/HLA-A*02:01 complex (human).
T1 construct: biotinylated on the BSP by BirA for ELISA and panning; also called biotinylated AFP158/HLA-A*02:01 complex; Bio-AFP158
Description: SPR, scFv-mIgG2aFc from supernatant captured, complex as analyte. (Surface plasmon resonance follows binding to a sensor surface in real time, without labels.)
Description: (§1) The binding affinity between selected antibodies and AFP158/HLA-A*02:01 complex was determined by surface plasmon resonance (SPR) on a BIAcore T200 instrument (GE Healthcare). The experiment was carried out as follows. The purified sdAb/scFv-mIgG2aFc protein were captured through mIgG2a-Fc onto the sensorchip. […] On-rate (kₐ) and off-rate (kd) were calculated based on association and dissociation curve, and were used to estimate the equilibrium dissociation constant (KD).
Humanized heavy chains and light chains were combined, and used to produce a series of humanized antibodies. These antibodies were synthesized as scFv-mIgG2aFc and transiently produced using HEK293 cells. The antibodies in the supernatant were subjected to SPR affinity assessment.

The target of test [2] is T1, AFP158/HLA-A*02:01 complex. Description: SPR, antibody captured via mIgG2a-Fc, complex as analyte.
Description: as §1
In test [3] the target is T2, ZNF566 peptide loaded T2 cells (human, UniProt P61769 21-119).
T2 construct: whole, on cells; also called ZNF566/T2
Description: flow cytometry, peptide-loaded T2 cells. (Flow cytometry measures light scatter and fluorescence of single cells or particles in a stream.)

In test [4] the target is T3, OR51B6 peptide loaded T2 cells (human, UniProt P61769 21-119).
T3 construct: whole, on cells; also called OR51B6/T2
Description: flow cytometry, peptide-loaded T2 cells.

In test [5] the target is T4, OR6C1 peptide loaded T2 cells (human, UniProt P61769 21-119).
T4 construct: whole, on cells; also called OR6C1/T2
Description: flow cytometry, peptide-loaded T2 cells.

The target in test [6] is T5, RP1 peptide loaded T2 cells (human, UniProt P61769 21-119).
T5 construct: whole, on cells; also called RP1/T2
Description: flow cytometry, peptide-loaded T2 cells.

Test [7] addresses T6, OR1I1 peptide loaded T2 cells (human, UniProt P61769 21-119).
T6 construct: whole, on cells; also called OR1I1/T2
Description: flow cytometry, peptide-loaded T2 cells.

In test [8] the target is T7, PTP4A1 peptide loaded T2 cells (human, UniProt P61769 21-119).
T7 construct: whole, on cells; also called PTP4A1-pulsed T2 cells
Description: flow cytometry, peptide-loaded T2 cells.

The target of test [9] is T8, CDC14A peptide loaded T2 cells (human, UniProt P61769 21-119).
T8 construct: whole, on cells; also called CDC14A/T2
Description: flow cytometry, peptide-loaded T2 cells.

The target in test [10] is T9, ATG9A peptide loaded T2 cells (human, UniProt P61769 21-119).
T9 construct: whole, on cells; also called ATG9A/T2
Description: flow cytometry, peptide-loaded T2 cells.

Test [11] addresses T10, RCL1 peptide loaded T2 cells (human).
T10 construct: whole, on cells; also called RCL1/T2
Description: flow cytometry, peptide-loaded T2 cells.

The target in test [12] is T11, NR2E1 peptide loaded T2 cells (human, UniProt P61769 21-119).
T11 construct: whole, on cells; also called NR2E1/T2
Description: flow cytometry, peptide-loaded T2 cells.

For test [13], the target named is T12, ARNTL peptide loaded T2 cells (human, UniProt P61769 21-119).
T12 construct: whole, on cells; also called ARNTL/T2
Description: flow cytometry, peptide-loaded T2 cells.

The target of test [14] is T13, BRCA2 peptide loaded T2 cells (human).
T13 construct: whole, on cells; also called BRCA2/T2
Description: flow cytometry, peptide-loaded T2 cells.

Test [15] deals with T1, AFP158/HLA-A*02:01 complex. Description: SPR; vs AS170036 VL1VH1.
The target in test [16] is CDC14A peptide/HLA-A*02:01 complex (recombinant) (human). Description: SPR.
The target in test [17] is RP1 peptide/HLA-A*02:01 complex (recombinant) (human, UniProt P16213 21-119 (Pongo pygmaeus entry)). Description: SPR.
The target in test [18] is NR2E1 peptide/HLA-A*02:01 complex (recombinant) (human). Description: SPR.
For test [19], the target named is PTP4A1 peptide/HLA-A*02:01 complex (recombinant) (human). Description: SPR.
Test [20] deals with BRCA2 peptide/HLA-A*02:01 complex (recombinant) (human). Description: SPR.
The target in test [21] is ATG9A peptide/HLA-A*02:01 complex (recombinant) (human). Description: SPR.
Test [22] concerns the target OR1I1 peptide/HLA-A*02:01 complex (recombinant) (human). Description: SPR.
In test [23] the target is OR6C1 peptide/HLA-A*02:01 complex (recombinant) (human). Description: SPR.
The target of test [24] is ARNTL peptide/HLA-A*02:01 complex (recombinant) (human). Description: SPR.
For test [25], the target named is ZNF566 peptide/HLA-A*02:01 complex (recombinant) (human). Description: SPR.
Test [26] addresses OR51B6 peptide/HLA-A*02:01 complex (recombinant) (human). Description: SPR.
The target of test [27] is RCL1 peptide/HLA-A*02:01 complex (recombinant) (human, UniProt P16213 21-119 (Pongo pygmaeus entry)). Description: SPR.
Test [28] addresses T1, AFP158/HLA-A*02:01 complex. Description: SPR; vs AS170036 VL1VH1. This is another data set of the same source.
The target in test [29] is T1, AFP158/HLA-A*02:01 complex. Description: SPR, crude scFv captured.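 Also: Peptide–MHC complex flowed at several concentrations over sensorchip-captured scFv, Kd derived from on- and off-rates obtained from the association and dissociation curves.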

Read-outs that look alike come from different tables or passages of the source. Bounds are passed on as bounds.

B1: AS190259 VL1VH1 scFv-mIgG2aFc (Fc fusion, not shown: a dimerising Fc or GST)
chain: SSELTQDPAVSVALGQTVRITCQGGGYYVNWYQQKPGQAPVLVIYLNTNRPSGIPDRFSGSSSGNTASLTITGAQAEDEADYYCQSADSSGNSAVFGGGTKLTVLGGGGSGGGGSGGGGSEVQLVESGGGLVQPGGSLRLSCAASGFTFSSYAMSWVRQAPGKGLEWVSAINSGGGSTYYADSVKGRFTISRDNSKNTLYLQMNSLRAEDTAVYYCAKAASGYGGSWWGDATLDAWGQGTLVTVSS
notes: Humanized
The term Kd denotes the free concentration of one partner at which half of the binding sites on the other are occupied at equilibrium, for simple one-to-one binding. The low end stands for tighter binding, the high end for weaker binding. As a reminder, the koff is the first-order rate constant of dissociation. Usually kon stands for the second-order rate constant of association. A lower kon goes with slower complex formation. In test [1], B1 displayed a dissociation constant (Kd) of 200 nM, a koff of 0.39 s⁻¹ and a kon of 2e+06 M⁻¹ s⁻¹.

B2: AS190259 VL2VH1 scFv-mIgG2aFc (Fc fusion, not shown: a dimerising Fc or GST; small tags and cut ends)
scFv: SSELTQDPAVSVALGQTVTITCQGGGYYVNWYQQKPGQAPVLVIYLNTNRPSGIPDRFSGSSSGNTASLTITGAQAEDEAAYYCQSADSSGNSAVFGGGTKLTVLGGGGSGGGGSGGGGSEVQLVESGGGLVQPGGSLRLSCAASGFTFSSYAMSWVRQAPGKGLEWVSAINSGGGSTYYADSVKGRFTISRDNSKNTLYLQMNSLRAEDTAVYYCAKAASGYGGSWWGDATLDAWGQGTLVTVSS
In the case of B2, in test [1], the dissociation constant (Kd) was determined as 220 nM, the off-rate (koff) stood at 0.3 s⁻¹ and the kon was 1.4e+06 M⁻¹ s⁻¹.

B3: AS148691 scFv-mIgG2aFc (Fc fusion, not shown: a dimerising Fc or GST)
chain: DIQMTQSPSSLSASVGDRVTITCRASQSVSSAVAWYQQKPGKAPKLLIYSASSLYSGVPSRFSGSRSGTDFTLTISSLQPEDFATYYCQQYYGAYLITFGQGTKVEIKGGGGSGGGGSGGGGSEVQLVESGGGLVQPGGSLRLSCAASGFNLYYSSIHWVRQAPGKGLEWVASIYSSYGSTSYADSVKGRFTISADTSKNTAYLQMNSLRAEDTAVYYCARVGPGYYGIDYWGQGTLVTVSS
notes: i647-labelled for flow cytometry
For B3, the Kd in test [2] came to 71 nM. Further, in test [2], the koff is 0.005 s⁻¹. Further, the kon in [2] stood at 71000 M⁻¹ s⁻¹. Moreover, the binding result in [3], in test [4], in [5], in [6], in [7] and in [8] was “no binding (tested: 30 or 50 nM)” each time. The binding result in test [9], in test [10], in test [11], in test [12], in [13] and in [14] was “no binding (tested: 30 or 50 nM)” each time.

B4: AS190259 scFv-mIgG2aFc (Fc fusion, not shown: a dimerising Fc or GST)
chain: QSVVTQPSAVSVSLEETATITCQGGGYYVNWYQQKPGQAPVLVIYLNTNRPSGIPERFSASKSGGTATLTINGAQAEDEAAYYCQSADSSGNSAVFGGGTHLTVLGGGGSGGGGSGGGGSQVQLVQSGGGLVQPGGSLRLSCAASGFTFSSYAMSWVRQAPGKGLEWVSAINSGGGSTYYADSVKGRFTISRDNAKNTLYLQLNSLKTEDTAMYYCAKAASGYGGSWWGDATLDAWGQGTLVTVSS
notes: Camel scFv; i647-labelled for flow cytometry
Regarding B4, in test [2], binding was characterised by a dissociation constant (Kd) of 390 nM, the koff is 0.14 s⁻¹ and the kon came out at 350000 M⁻¹ s⁻¹. In addition, in test [1], the Kd worked out at 220 nM, the koff came to 0.25 s⁻¹ and the kon was found to be 1.1e+06 M⁻¹ s⁻¹.

B5: AS170036 VL1VH1-VHG108N (scFv)
scFv: QSALTQPRSVSGSPGQSVTISCAGTSSDVGSENYVSWYQQHPGKAPKLMIYQVNKRASGVPDRFSGSKSGNTASLTISGLQAEDEADYYCASYRSSDHNIVFGGGTKLTVLGGGGSGGGGSGGGGSEVQLVESGGGLVQPGGSLRLSCAASGFTFSSYAMSWVRQAPGKGLEWVSTINSGTGSPYYADSVKGRFTISRDNSKNTLYLQMNSLRAEDTAVYYCAKNFFDGSWFLNPPAMDYWGQGTLVTVSSHHHHHH
In the case of B5, the Affinity increase in test [15] was more than 2 fold; in [28], 2 fold. Besides, the binding result in [16], in [17], in [18], in test [19], in test [20] and in test [21] was “no binding” in each case. Further, the binding result in [22], in test [23], in test [24], in test [25], in test [26] and in test [27] was “no binding” throughout. Further, in [29], the Kd worked out at 140 nM.

B6: AS170036 VL1VH1-VHS57Q (scFv)
scFv: QSALTQPRSVSGSPGQSVTISCAGTSSDVGSENYVSWYQQHPGKAPKLMIYQVNKRASGVPDRFSGSKSGNTASLTISGLQAEDEADYYCASYRSSDHNIVFGGGTKLTVLGGGGSGGGGSGGGGSEVQLVESGGGLVQPGGSLRLSCAASGFTFSSYAMSWVRQAPGKGLEWVSTINSGTGQPYYADSVKGRFTISRDNSKNTLYLQMNSLRAEDTAVYYCAKNFFDGSWFLGPPAMDYWGQGTLVTVSSHHHHHH
For the molecule B6, the results for the Affinity increase in test [15] and in test [28] were more than 2 fold and 2.4 fold, respectively. Moreover, the binding result in test [16], in [17], in test [18], in test [19], in [20] and in test [21] was “no binding” in each case. Moreover, the binding result in test [22], in [23], in [24], in test [25], in [26] and in [27] was “no binding” in each case. Moreover, the affinity in [29], expressed as Kd, was 100 nM.

B7: AS170036 VL1VH1-VHS57R (scFv)
scFv: QSALTQPRSVSGSPGQSVTISCAGTSSDVGSENYVSWYQQHPGKAPKLMIYQVNKRASGVPDRFSGSKSGNTASLTISGLQAEDEADYYCASYRSSDHNIVFGGGTKLTVLGGGGSGGGGSGGGGSEVQLVESGGGLVQPGGSLRLSCAASGFTFSSYAMSWVRQAPGKGLEWVSTINSGTGRPYYADSVKGRFTISRDNSKNTLYLQMNSLRAEDTAVYYCAKNFFDGSWFLGPPAMDYWGQGTLVTVSSHHHHHH
Turning to B7, the results for the Affinity increase in test [15] and in test [28] were more than 2 fold and 2.8 fold, respectively. The binding result in test [16], in test [17], in test [18], in [19], in test [20] and in [21] was “no binding” in each case. Also, the binding result in [22], in test [23], in test [24], in test [25], in [26] and in [27] was “no binding” each time. This molecule registered a Kd in test [29] of 88 nM.
